# “And” between values parts separate entries of the source, which are not always exact repeats. Equal values may be shown once.
# T1: cavin1-GFP (cell-free) (UniProt Q6NZI2 1-390)
# T1 construct: cavin1 / polymerase transcript release factor (PTRF); ORF in a Gateway DNA template for cell-free expression; also called PTRF; source: Leishmania tarentolae cell-free system (LTE), in vitro translated, not purified; not shown: eGFP, N-terminal, kept
# T1 sequence (looked up): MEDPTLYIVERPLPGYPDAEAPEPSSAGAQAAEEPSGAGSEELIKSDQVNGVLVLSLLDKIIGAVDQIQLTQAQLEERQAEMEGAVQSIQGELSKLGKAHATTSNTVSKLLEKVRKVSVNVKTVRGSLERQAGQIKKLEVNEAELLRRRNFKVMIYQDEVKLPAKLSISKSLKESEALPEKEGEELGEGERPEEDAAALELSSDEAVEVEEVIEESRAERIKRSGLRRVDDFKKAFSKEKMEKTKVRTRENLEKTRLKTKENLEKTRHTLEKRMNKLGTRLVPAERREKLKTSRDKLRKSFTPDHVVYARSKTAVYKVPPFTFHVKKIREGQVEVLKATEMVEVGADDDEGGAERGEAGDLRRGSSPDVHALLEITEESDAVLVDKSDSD
# T2: CAV1 untagged (UniProt Q03135 1-178)
# T2 construct: caveolin-1 (CAV1), untagged; construct cloned as described in Hill et al. (2008); also called caveolin-1; source: MCF-7 cells, transfected, in post nuclear supernatant
# T2 sequence (looked up): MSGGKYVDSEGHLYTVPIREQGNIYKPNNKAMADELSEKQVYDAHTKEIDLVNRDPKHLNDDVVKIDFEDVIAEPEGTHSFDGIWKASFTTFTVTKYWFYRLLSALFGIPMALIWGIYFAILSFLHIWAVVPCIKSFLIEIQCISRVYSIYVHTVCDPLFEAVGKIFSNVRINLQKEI
# T3: CAV1-GFP (UniProt Q03135 1-178)
# T3 construct: caveolin-1 (CAV1); construct cloned as described in Hill et al. (2008); membrane protein, seen on caveolae in the cell extract; also called caveolin-1; Caveolin-1; source: MCF-7 cells, transfected, in post nuclear supernatant
# T3 sequence (looked up): T2 sequence (looked up)
# T4: cavin3-GFP (UniProt Q969G5 1-261)
# T4 construct: construct cloned as described in Hill et al. (2008); The only hint on species is the keyword 'human'; the cDNA may be of mouse (surmise); also called SRBC; source: MCF-7, MDCK or HeLa cells, transfected (Lipofectamine 2000), in supernatant of mechanically lysed cells
# T4 sequence (looked up): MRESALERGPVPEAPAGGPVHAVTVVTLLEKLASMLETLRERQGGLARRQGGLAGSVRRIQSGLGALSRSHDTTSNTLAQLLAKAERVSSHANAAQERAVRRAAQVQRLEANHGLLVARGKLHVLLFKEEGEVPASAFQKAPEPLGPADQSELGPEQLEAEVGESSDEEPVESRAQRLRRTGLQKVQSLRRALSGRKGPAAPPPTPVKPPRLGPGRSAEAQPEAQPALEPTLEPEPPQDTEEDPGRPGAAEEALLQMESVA
# B1: cavin3-Cherry-myc (cell-free) (natural protein, UniProt Q969G5 1-261, looked up)
# chain: T4 sequence (looked up)
# notes: cavin3 / SRBC; ORF in a Gateway DNA template for cell-free expression; also called SRBC; cavin3-myc; source: Leishmania tarentolae cell-free system (LTE), in vitro translated, not purified; not shown: mCherry, C-terminal, kept; Myc, C-terminal, kept
# B2: cavin1-GFP (natural protein, UniProt Q6NZI2 1-390, looked up)
# chain: T1 sequence (looked up)
# notes: cavin1 / polymerase transcript release factor (PTRF); construct cloned as described in Hill et al. (2008); The only hint on species is the keyword 'human'; the cDNA may be of mouse (surmise); also called polymerase transcript release factor; PTRF; source: MCF-7 or MDCK cells, transfected (Lipofectamine 2000), in supernatant of mechanically lysed cells
# B3: cavin1-Cherry (natural protein, UniProt Q6NZI2 1-390, looked up)
# chain: T1 sequence (looked up)
# notes: cavin1 / polymerase transcript release factor (PTRF); construct cloned as described in Hill et al. (2008); The only hint on species is the keyword 'human'; the cDNA may be of mouse (surmise); also called PTRF; source: MCF-7 or MDCK cells, transfected (Lipofectamine 2000), in supernatant of mechanically lysed cells
# B4: cavin2-GFP (natural protein, UniProt O95810 1-425, looked up)
# chain: MGEDAAQAEKFQHPGSDMRQEKPSSPSPMPSSTPSPSLNLGNTEEAIRDNSQVNAVTVLTLLDKLVNMLDAVQENQHKMEQRQISLEGSVKGIQNDLTKLSKYQASTSNTVSKLLEKSRKVSAHTRAVKERMDRQCAQVKRLENNHAQLLRRNHFKVLIFQEENEIPASVFVKQPVSGAVEGKEELPDENKSLEETLHTVDLSSDDDLPHDEEALEDSAEEKVEESRAEKIKRSSLKKVDSLKKAFSRQNIEKKMNKLGTKIVSVERREKIKKSLTSNHQKISSGKSSPFKVSPLTFGRKKVREGESHAENETKSEDLPSSEQMPNDQEEESFAEGHSEASLASALVEGEIAEEAAEKATSRGSNSGMDSNIDLTIVEDEEEESVALEQAQKVRYEGSYALTSEEAERSDGDPVQPAVLQVHQTS
# notes: cavin2 / SDPR (serum deprivation response protein); construct cloned as described in Hill et al. (2008); The only hint on species is the keyword 'human'; the cDNA may be of mouse (surmise); also called SDPR; serum deprivation response protein; source: MCF-7 or MDCK cells, transfected (Lipofectamine 2000), in supernatant of mechanically lysed cells
# B5: cavin3-Cherry (natural protein, UniProt Q969G5 1-261, looked up)
# chain: T4 sequence (looked up)
# notes: construct cloned as described in Hill et al. (2008); The only hint on species is the keyword 'human'; the cDNA may be of mouse (surmise); also called SRBC; C3-C; source: MCF-7 or MDCK cells, transfected (Lipofectamine 2000), in supernatant of mechanically lysed cells
# Assays:
# cavin1-GFP (cell-free) = target: T1, cavin1-GFP (cell-free); experiment: single-molecule two-colour fluorescence coincidence; co-expression in the Leishmania tarentolae cell-free system at DNA ratios from 100% GFP to 100% Cherry; >1000 bursts for each ratio; conditions: partners not purified
# [1] = target: the molecule itself; experiment: single-molecule brightness analysis; burst brightness of fluorescent cavins in supernatant of MCF-7 cells without CAV1, calibrated on monomeric GFP (maximum 100 photons)
# CAV1 untagged = target: T2, CAV1 untagged; experiment: single-molecule brightness analysis; burst brightness in supernatant of MCF-7 cells transfected with CAV1-GFP, or with cavin1-GFP and untagged CAV1; calibrated on a single GFP; conditions: partners not purified
# [2] = target: the molecule itself; experiment: as above
# CAV1-GFP = target: T3, CAV1-GFP; experiment: single-molecule two-colour fluorescence coincidence; MCF-7 cells expressing CAV1-GFP and cavin1-Cherry; caveolae in the post nuclear supernatant; conditions: partners not purified
# cavin1-GFP = target: B2; experiment: single-molecule brightness analysis; burst brightness of oligomers in the cytoplasmic fraction of MDCK cells after hypo-osmotic treatment (20 min); conditions: partners not purified
# cavin2-GFP = target: B4; experiment: single-molecule two-colour fluorescence coincidence; MDCK cells (endogenous cavin1 and CAV1) co-transfected; cytoplasmic fraction after hypo-osmotic treatment (DMEM 1:10 in water, 20 min, 37°C); conditions: partners not purified
# cavin3-GFP = target: T4, cavin3-GFP; experiment: as above; conditions: partners not purified
binder,measurement,setting,value
B1,stoichiometry N,cavin1-GFP (cell-free),3 cavin1 per cavin3
B2,stoichiometry N,[1],50 ± 5 proteins per complex
same,brightness of CAV1-GFP over cavin1-GFP,CAV1 untagged,3.5 fold
same,stoichiometry N,[2],40 to 50 cavin1 per caveola
B3,stoichiometry N,CAV1-GFP,3 CAV1 per cavin1 and 4 CAV1 per cavin1
same,stoichiometry N,cavin1-GFP,9 cavin1 proteins per oligomer and 8 cavin1 proteins per oligomer to 10 cavin1 proteins per oligomer (2×)
same,stoichiometry N,cavin2-GFP,2 cavin1 per cavin2
same,stoichiometry N,cavin3-GFP,~2 cavin1 per cavin3
B4,stoichiometry N,[1],~50 monomers
B5,stoichiometry N,[1],~50 monomers
